Our source for the Kd and stoichiometry N values is publication PMC6081406 (Nature Communications, 2018).

The target of test [1] is GABAAR α3 subunit large cytoplasmic loop (AA 392-406) (UniProt P20236).
Test [2] addresses GABAAR α2 subunit large cytoplasmic loop (AA 335-419) (UniProt P23576).
Test [3] addresses GABAAR α1 subunit large cytoplasmic loop (AA 334-420) (UniProt P62813).
Test [4] deals with T1, SH3 domain of collybistin (CB-SH3) (mouse (murine), UniProt Q3UTH8 4-72).
T1 construct: collybistin (CB1, ARHGEF9), murine, residues 4-72, encompassing the complete SH3 domain (residues 8-67); said to be identical to the SH3 domain of the human CB isoform hPEM-2; pGEX vector construct provided by T. Soykan (Brose lab); also called collybistin SH3; source: E. coli, purified (GST tag, in-situ thrombin cleavage, Superdex 200 SEC); not shown: GST, N-terminal, cleaved
T1 sequence (looked up): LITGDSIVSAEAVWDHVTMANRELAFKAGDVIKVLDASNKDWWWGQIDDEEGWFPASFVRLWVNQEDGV
The experiment in a line: ITC; CB-SH3 titrated against the GABAAR α-subunit loops and truncated α2 constructs; purified proteins. The note with it: both partners purified. A general note: ITC needs no label: the signal is the heat of the interaction.

Test [5] deals with T2, GABAA receptor alpha2 large intracellular loop (Mus musculus, UniProt P26048).
T2 chain: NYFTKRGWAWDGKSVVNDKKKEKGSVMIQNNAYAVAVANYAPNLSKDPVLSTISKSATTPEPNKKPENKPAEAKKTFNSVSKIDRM
The experiment in a line: ITC.

Test [6] addresses GABAAR-α2 loop truncation α2-351St (AA 307-350). The experiment in a line: ITC; CB-SH3 titrated against the GABAAR α-subunit loops and truncated α2 constructs; purified proteins.
The target in test [7] is GABAAR-α2 large cytoplasmic loop (AA 335-419). Described as above.
The target of test [8] is T3, GABAAR α2 subunit large cytoplasmic loop (AA 335-419) (UniProt P23576 335-419).
T3 construct: GABAA receptor α2 subunit, large cytoplasmic loop, AA 335-419; also called α2L; GABAAR-α2L
The test is described as follows: ITC; CB-SH3 titrated against the receptor loops and truncated constructs. The note with it: both partners purified.

Test [9] concerns the target GABAAR α3 subunit large cytoplasmic loop (AA 392-406) (UniProt P20236). The description is as above.
Test [10] has as its target large cytoplasmic loop of the GlyR β subunit (AA 378-425). Described as above.
The target in test [11] is GABAAR α1 subunit large cytoplasmic loop (AA 334-420) (UniProt P62813). Described as above.
Test [12] deals with GABAAR-α2 loop truncation α2-335St (AA 307-334). The experiment in a line: ITC; CB-SH3 titrated against the GABAAR α-subunit loops and truncated α2 constructs; purified proteins.
The target in test [13] is GABAAR-α2 loop fragment α2-min3. Described as above.

Like-named read-outs stand apart in the source and are kept apart here.

As to “E domain of gephyrin (GephE, AA 318-736) (domain or fragment)”, the values for the Kd in [1], in test [2] and in test [3] were 5 µM, greater than 500 µM and 17 µM, respectively.

B1: GABAAR-α2 loop fragment α2-min1 (peptide)
chain: QNNAYAVAVANYAPN
notes: GABA-A receptor subunit alpha-2, stretch of the large cytoplasmic loop
As for B1, in test [4], the Kd is greater than 500 µM.

B2: Collybistin SH3 (protein)
chain: ITGDSIVSAEAVWDHVTMANRGVAFKAGDVIKVLDASNKDWWWGQIDDEEGWFPASFVRLWVNQED
Take B2: in test [5], the Kd stood at 1000 nM.

B3: SH3 domain of collybistin (CB-SH3) (domain or fragment, murine, UniProt Q3UTH8 4-72, looked up)
chain: LITGDSIVSAEAVWDHVTMANRELAFKAGDVIKVLDASNKDWWWGQIDDEEGWFPASFVRLWVNQEDGV
notes: collybistin CB1, murine, residues 4-72, encompassing the complete SH3 domain (residues 8-67); pGEX construct provided by T. Soykan (Brose lab); source: E. coli, purified (GST tag, in-situ thrombin cleavage, Superdex 200 SEC); not shown: GST, N-terminal, cleaved
As to B3, the Kd in [6] is 7 µM; in [8] it was 1300 nM; in test [9], greater than 500 µM; in test [10] it was greater than 500 µM; in test [11], 500 µM. In test [7], this molecule yielded a stoichiometry N of 0.62.

B4: SH3 domain of collybistin (CB-SH3), Q3UTH8 4-72 (domain or fragment)
chain: LITGDSIVSAEAVWDHVTMANRELAFKAGDVIKVLDASNKDWWWGQIDDEEGWFPASFVRLWVNQEDGV
As for B4, the Kd in test [12] and in test [13] was greater than 500 µM in each case.

B5: GABAAR-α2 loop fragment α2-min2 (peptide)
chain: KGSVMIQNNAYAVAVANYAPNL
notes: as for B1
B5 came in with a Kd in test [4] greater than 500 µM.

As usually defined, the Kd is the free concentration of one partner at which half of the binding sites on the other are occupied at equilibrium, for simple one-to-one binding. As a reminder, the stoichiometry N is the number of molecules, sites or subunits per partner or assembly.
